# Experimental data from IntAct's records for PubMed 32296183.
# B1: Very-long-chain enoyl-CoA reductase (Homo sapiens), Q9NZ01 (parent)
# chain: MKHYEVEILDAKTREKLCFLDKVEPHATIAEIKNLFTKTHPQWYPARQSLRLDPKGKSLKDEDVLQKLPVGTTATLYFRDLGAQISWVTVFLTEYAGPLFIYLLFYFRVPFIYGHKYDFTSSRHTVVHLACICHSFHYIKRLLETLFVHRFSHGTMPLRNIFKNCTYYWGFAAWMAYYINHPLYTPPTYGAQQVKLALAIFVICQLGNFSIHMALRDLRPAGSKTRKIPYPTKNPFTWLFLLVSCPNYTYEVGSWIGFAIMTQCLPVALFSLVGFTQMTIWAKGKHRSYLKEFRDYPPLRMPIIPFLL
# partner: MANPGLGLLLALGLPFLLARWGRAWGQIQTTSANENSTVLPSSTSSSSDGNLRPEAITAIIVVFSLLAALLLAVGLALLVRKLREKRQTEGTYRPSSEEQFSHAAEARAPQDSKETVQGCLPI
# B2: Ceroid-lipofuscinosis neuronal protein 6 (Homo sapiens), Q9NWW5 (parent)
# chain: MEATRRRQHLGATGGPGAQLGASFLQARHGSVSADEAARTAPFHLDLWFYFTLQNWVLDFGRPIAMLVFPLEWFPLNKPSVGDYFHMAYNVITPFLLLKLIERSPRTLPRSITYVSIIIFIMGASIHLVGDSVNHRLLFSGYQHHLSVRENPIIKNLKPETLIDSFELLYYYDEYLGHCMWYIPFFLILFMYFSGCFTASKAESLIPGPALLLVAPSGLYYWYLVTEGQIFILFIFTFFAMLALVLHQKRKRLFLDSNGLFLFSSFALTLLLVALWVAWLWNDPVLRKKYPGVIYVPEPWAFYTLHVSSRH
# partner: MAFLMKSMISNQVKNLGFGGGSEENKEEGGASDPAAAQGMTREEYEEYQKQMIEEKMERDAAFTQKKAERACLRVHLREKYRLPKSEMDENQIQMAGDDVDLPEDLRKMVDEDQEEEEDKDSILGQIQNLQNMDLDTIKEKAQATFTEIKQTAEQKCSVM
# B3: Golgi SNAP receptor complex member 2 (Homo sapiens), O14653 (parent)
# chain: MDPLFQQTHKQVHEIQSCMGRLETADKQSVHIVENEIQASIDQIFSRLERLEILSSKEPPNKRQNARLRVDQLKYDVQHLQTALRNFQHRRHAREQQERQREELLSRTFTTNDSDTTIPMDESLQFNSSLQKVHNGMDDLILDGHNILDGLRTQRLTLKGTQKKILDIANMLGLSNTVMRLIEKRAFQDKYFMIGGMLLTCVVMFLVVQYLT
# partner: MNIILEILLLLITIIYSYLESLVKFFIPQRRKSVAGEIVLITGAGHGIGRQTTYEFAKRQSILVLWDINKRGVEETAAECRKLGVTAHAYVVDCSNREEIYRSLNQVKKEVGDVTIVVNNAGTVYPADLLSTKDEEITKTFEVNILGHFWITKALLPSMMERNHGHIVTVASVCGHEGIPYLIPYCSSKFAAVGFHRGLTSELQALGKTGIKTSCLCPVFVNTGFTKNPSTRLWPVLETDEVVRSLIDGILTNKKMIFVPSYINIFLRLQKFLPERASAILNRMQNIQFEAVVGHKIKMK
# B4: Succinate--CoA ligase [ADP-forming] subunit beta, mitochondrial (Homo sapiens), Q9P2R7 (parent)
# chain: MAASMFYGRLVAVATLRNHRPRTAQRAAAQVLGSSGLFNNHGLQVQQQQQRNLSLHEYMSMELLQEAGVSVPKGYVAKSPDEAYAIAKKLGSKDVVIKAQVLAGGRGKGTFESGLKGGVKIVFSPEEAKAVSSQMIGKKLFTKQTGEKGRICNQVLVCERKYPRREYYFAITMERSFQGPVLIGSSHGGVNIEDVAAESPEAIIKEPIDIEEGIKKEQALQLAQKMGFPPNIVESAAENMVKLYSLFLKYDATMIEINPMVEDSDGAVLCMDAKINFDSNSAYRQKKIFDLQDWTQEDERDKDAAKANLNYIGLDGNIGCLVNGAGLAMATMDIIKLHGGTPANFLDVGGGATVHQVTEAFKLITSDKKVLAILVNIFGGIMRCDVIAQGIVMAVKDLEIKIPVVVRLQGTRVDDAKALIADSGLKILACDDLDEAARMVVKLSEIVTLAKQAHVDVKFQLPI
# partner: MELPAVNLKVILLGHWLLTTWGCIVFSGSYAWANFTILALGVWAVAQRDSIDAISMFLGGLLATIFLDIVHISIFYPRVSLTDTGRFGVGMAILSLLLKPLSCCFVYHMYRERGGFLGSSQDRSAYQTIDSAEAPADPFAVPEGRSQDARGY
# B5: Very-long-chain enoyl-CoA reductase (Homo sapiens), Q9NZ01 (parent)
# chain: B1 chain
# partner: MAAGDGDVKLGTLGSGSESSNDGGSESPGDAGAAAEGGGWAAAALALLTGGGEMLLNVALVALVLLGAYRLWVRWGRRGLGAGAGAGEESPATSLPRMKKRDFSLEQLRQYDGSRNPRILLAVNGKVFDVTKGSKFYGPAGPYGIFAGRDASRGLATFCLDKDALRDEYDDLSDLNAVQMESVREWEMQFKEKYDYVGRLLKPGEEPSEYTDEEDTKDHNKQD
# B6: Transmembrane protein 43 (Homo sapiens), Q9BTV4 (parent)
# chain: MAANYSSTSTRREHVKVKTSSQPGFLERLSETSGGMFVGLMAFLLSFYLIFTNEGRALKTATSLAEGLSLVVSPDSIHSVAPENEGRLVHIIGALRTSKLLSDPNYGVHLPAVKLRRHVEMYQWVETEESREYTEDGQVKKETRYSYNTEWRSEIINSKNFDREIGHKNPSAMAVESFMATAPFVQIGRFFLSSGLIDKVDNFKSLSLSKLEDPHVDIIRRGDFFYHSENPKYPEVGDLRVSFSYAGLSGDDPDLGPAHVVTVIARQRGDQLVPFSTKSGDTLLLLHHGDFSAEEVFHRELRSNSMKTWGLRAAGWMAMFMGLNLMTRILYTLVDWFPVFRDLVNIGLKAFAFCVATSLTLLTVAAGWLFYRPLWALLIAGLALVPILVARTRVPAKKLE
# partner: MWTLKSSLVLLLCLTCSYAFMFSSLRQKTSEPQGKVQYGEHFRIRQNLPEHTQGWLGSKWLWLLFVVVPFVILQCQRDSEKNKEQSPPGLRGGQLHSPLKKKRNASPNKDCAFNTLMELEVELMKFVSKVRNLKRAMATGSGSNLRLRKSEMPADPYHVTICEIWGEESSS
# B7: Very-long-chain enoyl-CoA reductase (Homo sapiens), Q9NZ01 (parent)
# chain: B1 chain
# B8: Golgi SNAP receptor complex member 2 (Homo sapiens), O14653 (parent)
# chain: B3 chain
# partner: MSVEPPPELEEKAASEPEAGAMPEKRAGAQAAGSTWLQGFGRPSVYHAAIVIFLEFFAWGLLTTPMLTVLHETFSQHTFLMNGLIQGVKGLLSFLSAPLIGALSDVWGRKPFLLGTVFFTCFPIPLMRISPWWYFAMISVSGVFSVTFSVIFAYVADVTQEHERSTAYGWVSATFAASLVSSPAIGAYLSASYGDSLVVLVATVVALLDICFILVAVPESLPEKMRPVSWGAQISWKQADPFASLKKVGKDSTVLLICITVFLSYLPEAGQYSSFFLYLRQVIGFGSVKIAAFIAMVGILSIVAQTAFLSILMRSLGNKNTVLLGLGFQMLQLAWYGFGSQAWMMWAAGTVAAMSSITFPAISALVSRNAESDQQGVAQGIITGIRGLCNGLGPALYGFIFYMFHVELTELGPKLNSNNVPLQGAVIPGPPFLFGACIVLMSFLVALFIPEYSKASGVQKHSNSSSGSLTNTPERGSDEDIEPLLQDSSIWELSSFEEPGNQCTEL
# Variants of: B1
# Conditions: with CRB3, Q9BUF7-2
row,effect of a mutation on the interaction,Variant
1,disrupting interaction strength,P182L

# Variants of: B2
# Conditions: with cplx4_human CPLX4, Q7Z7G2
row,effect of a mutation on the interaction,Variant
1,with no effect,L47F
2,with no effect,G123D
3,with no effect,R6T

# Variants of: B3
# Conditions: with dhb13_human HSD17B13, Q7Z5P4
row,effect of a mutation on the interaction,Variant
1,with no effect,G144W

# Variants of: B4
# Conditions: with AGTRAP
row,effect of a mutation on the interaction,Variant
1,disrupting interaction strength,D251N
2,disrupting interaction strength,G118R

# Variants of: B5
# Conditions: with pgrc2_human PGRMC2, O15173
row,effect of a mutation on the interaction,Variant
1,with no effect,P182L

# Variants of: B6
# Conditions: with FAM209A
row,effect of a mutation on the interaction,Variant
1,disrupting interaction strength,E85K
2,with no effect,Y371H
3,disrupting interaction strength,E142K
4,with no effect,I91V
5,with no effect,R28W

# Variants of: B7
# Conditions: with ergi3_human ERGIC3, Q9Y282
# ergi3_human ERGIC3, Q9Y282, sequence (Q9Y282 whole entry): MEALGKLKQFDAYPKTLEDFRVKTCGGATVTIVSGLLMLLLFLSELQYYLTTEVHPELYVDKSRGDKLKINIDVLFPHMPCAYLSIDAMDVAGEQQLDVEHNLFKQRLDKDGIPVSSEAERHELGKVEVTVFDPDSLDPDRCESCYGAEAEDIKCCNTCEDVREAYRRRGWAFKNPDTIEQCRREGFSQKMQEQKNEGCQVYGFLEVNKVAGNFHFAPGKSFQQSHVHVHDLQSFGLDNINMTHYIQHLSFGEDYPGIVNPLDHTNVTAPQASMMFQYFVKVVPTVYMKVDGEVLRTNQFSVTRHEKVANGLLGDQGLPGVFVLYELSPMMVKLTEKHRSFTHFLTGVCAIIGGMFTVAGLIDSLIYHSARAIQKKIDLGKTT
row,effect of a mutation on the interaction,Variant
1,disrupting interaction strength,P182L

# Variants of: B7
# Conditions: with cd79a_human CD79A
row,effect of a mutation on the interaction,Variant
1,disrupting interaction strength,P182L

# Variants of: B7
# Conditions: with MUC1, P15941-11
# MUC1, P15941-11, sequence (P15941 other isoform, or with tags, fused parts or gaps): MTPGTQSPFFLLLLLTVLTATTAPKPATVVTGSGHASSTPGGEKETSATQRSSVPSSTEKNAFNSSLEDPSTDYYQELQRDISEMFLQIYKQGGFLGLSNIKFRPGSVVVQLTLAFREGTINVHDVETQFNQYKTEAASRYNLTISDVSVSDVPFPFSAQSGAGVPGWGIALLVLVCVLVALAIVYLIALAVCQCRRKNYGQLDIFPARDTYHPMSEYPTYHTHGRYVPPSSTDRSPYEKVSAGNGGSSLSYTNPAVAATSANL
row,effect of a mutation on the interaction,Variant
1,disrupting interaction strength,P182L

# Variants of: B7
# Conditions: with ar13b_human ARL13B
row,effect of a mutation on the interaction,Variant
1,disrupting interaction strength,P182L

# Variants of: B7
# Conditions: with SLC7A14, Q8TBB6
# SLC7A14, Q8TBB6, sequence (Q8TBB6 whole entry): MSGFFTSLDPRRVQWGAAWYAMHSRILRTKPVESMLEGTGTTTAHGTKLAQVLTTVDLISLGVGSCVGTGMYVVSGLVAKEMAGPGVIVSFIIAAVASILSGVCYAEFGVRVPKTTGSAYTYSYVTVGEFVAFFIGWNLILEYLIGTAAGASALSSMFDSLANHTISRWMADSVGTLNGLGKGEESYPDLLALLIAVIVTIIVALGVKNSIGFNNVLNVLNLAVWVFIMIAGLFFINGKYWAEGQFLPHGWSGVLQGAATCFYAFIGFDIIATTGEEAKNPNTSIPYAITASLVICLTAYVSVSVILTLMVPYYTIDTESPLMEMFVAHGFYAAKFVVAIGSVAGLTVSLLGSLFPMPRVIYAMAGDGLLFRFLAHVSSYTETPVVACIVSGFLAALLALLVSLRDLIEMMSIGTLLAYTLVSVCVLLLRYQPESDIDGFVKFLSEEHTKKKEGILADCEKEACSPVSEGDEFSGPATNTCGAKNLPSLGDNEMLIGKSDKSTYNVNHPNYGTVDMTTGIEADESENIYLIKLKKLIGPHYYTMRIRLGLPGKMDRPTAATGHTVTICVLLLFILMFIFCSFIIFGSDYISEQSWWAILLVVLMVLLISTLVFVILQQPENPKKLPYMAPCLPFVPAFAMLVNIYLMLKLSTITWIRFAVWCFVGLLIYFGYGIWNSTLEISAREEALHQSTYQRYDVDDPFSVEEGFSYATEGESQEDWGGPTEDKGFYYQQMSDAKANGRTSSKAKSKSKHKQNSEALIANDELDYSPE
row,effect of a mutation on the interaction,Variant
1,disrupting interaction strength,P182L

# Variants of: B7
# Conditions: with sting_human STING1, Q86WV6
# sting_human STING1, Q86WV6, sequence (Q86WV6 whole entry): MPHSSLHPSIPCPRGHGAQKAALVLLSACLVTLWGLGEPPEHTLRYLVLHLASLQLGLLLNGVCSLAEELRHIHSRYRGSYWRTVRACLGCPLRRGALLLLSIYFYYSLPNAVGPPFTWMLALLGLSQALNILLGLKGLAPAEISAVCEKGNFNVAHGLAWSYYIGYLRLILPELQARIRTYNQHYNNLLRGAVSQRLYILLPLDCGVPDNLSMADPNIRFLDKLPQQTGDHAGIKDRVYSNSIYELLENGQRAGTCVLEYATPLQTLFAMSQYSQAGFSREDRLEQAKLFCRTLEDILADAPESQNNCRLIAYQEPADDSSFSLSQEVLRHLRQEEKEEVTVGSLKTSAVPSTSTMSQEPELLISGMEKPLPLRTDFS
row,effect of a mutation on the interaction,Variant
1,with no effect,P182L

# Variants of: B8
# Conditions: with mf14b_human MFSD14B
row,effect of a mutation on the interaction,Variant
1,with no effect,G144W
